Source: patent US20130336885A1 (Genentech, published 2013)
Blank lines part the entries; values can stand above or below the binder they belong to.

How the values were obtained:
[1] = target: T1, human LgR5 ECD (amino acids 22-557 fused to His-Fc expressed in a baculovirus system, or amino acids 22-558 … (human, UniProt O75473 22-557)); test: BIAcore-3000 SPR, IgG captured on goat anti-human Fc, human LgR5 ECD-Fc injected, 25 C, 1:1 Langmuir model
T1 construct: not shown: C-terminal His-tagged Fc
T1 sequence: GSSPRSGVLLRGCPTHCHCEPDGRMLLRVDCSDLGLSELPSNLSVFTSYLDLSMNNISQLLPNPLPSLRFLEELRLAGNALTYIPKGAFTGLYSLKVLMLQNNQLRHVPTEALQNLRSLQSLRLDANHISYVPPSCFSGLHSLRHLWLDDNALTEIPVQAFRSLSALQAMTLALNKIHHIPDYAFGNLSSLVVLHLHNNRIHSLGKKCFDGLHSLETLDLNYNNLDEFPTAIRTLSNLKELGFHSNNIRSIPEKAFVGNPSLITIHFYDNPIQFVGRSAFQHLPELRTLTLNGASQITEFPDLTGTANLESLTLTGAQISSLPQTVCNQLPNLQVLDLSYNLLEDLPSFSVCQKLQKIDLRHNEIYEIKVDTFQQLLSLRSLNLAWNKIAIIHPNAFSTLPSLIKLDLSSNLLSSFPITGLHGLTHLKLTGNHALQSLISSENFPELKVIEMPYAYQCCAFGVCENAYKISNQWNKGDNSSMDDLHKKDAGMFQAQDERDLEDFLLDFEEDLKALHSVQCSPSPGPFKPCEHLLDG
Method: The affinity of each 8E11 IgG variant for human LgR5 was determined by surface plasmon resonance using a BIAcore™-3000. BIAcore™ research grade CMS chips were activated with 1-ethyl-3-(3-dimethylaminopropyl) carbodiimide (EDC) and N-hydroxysuccinimide (NHS) reagents according to the supplier's instructions. Goat anti-human Fc IgGs were coupled to the chips to achieve approximately 10,000 response units (RU) in each flow cell. Unreacted coupling groups were blocked with 1M ethanolamine. For kinetics measurements, anti-LGR5 antibodies were captured to achieve approximately 300 RU. Two-fold serial dilutions of human LgR5ECD (amino acids 22-557 fused to His-Fc expressed in a baculovirus system, or amino acids 22-558 fused to Fc expressed from CHO cells; 125 nM to 0.49 nM) were injected in HBS-P buffer (0.01M HEPES pH7.4, 0.15M NaCl, 0.005% surfactant P20) at 25° C. with a flow rate of 30 μl/min. Association rates (kₒₙ) and dissociation rates (koff) were calculated using a 1:1 Langmuir binding model (BIAcore™ Evaluation Software version 3.2). The equilibrium dissociation constant (Kd) was calculated as the ratio koff/kₒₙ.

[2] = target: T2, gD epitope-tagged LgR5 424-907 (amino acids 424-907 of SEQ ID NO: 67) on transiently transfected 293 cells (human, UniProt O75473 424-907); test: FACS on transiently transfected 293 cells
T2 sequence: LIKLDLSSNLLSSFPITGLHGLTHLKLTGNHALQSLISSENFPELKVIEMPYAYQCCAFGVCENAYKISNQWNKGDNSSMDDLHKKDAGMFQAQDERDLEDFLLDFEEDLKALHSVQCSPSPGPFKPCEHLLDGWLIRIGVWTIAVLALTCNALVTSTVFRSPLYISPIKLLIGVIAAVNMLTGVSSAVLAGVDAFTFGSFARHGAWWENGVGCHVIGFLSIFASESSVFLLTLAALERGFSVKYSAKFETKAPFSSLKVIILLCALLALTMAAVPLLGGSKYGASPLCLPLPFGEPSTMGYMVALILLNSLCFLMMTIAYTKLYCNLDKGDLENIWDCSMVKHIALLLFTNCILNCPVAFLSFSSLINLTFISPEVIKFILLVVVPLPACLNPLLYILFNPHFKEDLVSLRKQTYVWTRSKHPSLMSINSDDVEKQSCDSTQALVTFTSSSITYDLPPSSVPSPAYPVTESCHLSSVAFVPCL

[3] = target: T3, gD epitope-tagged LgR5 324-907 (amino acids 324-907 of SEQ ID NO: 67) on transiently transfected 293 cells (human, UniProt O75473 324-907); test: FACS on transiently transfected 293 cells
T3 sequence: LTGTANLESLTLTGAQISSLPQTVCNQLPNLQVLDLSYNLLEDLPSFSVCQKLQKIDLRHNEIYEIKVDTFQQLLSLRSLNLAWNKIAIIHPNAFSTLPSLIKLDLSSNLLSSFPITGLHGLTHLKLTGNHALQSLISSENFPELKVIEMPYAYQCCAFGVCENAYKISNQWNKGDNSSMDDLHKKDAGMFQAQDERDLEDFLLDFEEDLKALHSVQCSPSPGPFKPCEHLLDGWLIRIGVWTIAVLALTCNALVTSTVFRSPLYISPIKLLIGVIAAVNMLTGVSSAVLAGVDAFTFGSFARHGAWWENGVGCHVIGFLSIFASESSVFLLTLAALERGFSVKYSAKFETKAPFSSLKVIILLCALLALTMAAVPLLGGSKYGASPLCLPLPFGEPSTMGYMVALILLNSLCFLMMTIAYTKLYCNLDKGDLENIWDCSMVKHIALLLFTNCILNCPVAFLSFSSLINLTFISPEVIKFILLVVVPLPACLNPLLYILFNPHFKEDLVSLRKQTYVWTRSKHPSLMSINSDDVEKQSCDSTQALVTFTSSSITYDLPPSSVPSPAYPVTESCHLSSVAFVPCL

[4] = target: T1, human LgR5 ECD (amino acids 22-557 …); test: SPR (BIAcore-3000), antibody captured by anti-human Fc, LgR5 ECD-Fc injected

Kd [1]: 3.1 nM | koff [1]: 0.000853 s⁻¹ | kon [1]: 279000 M⁻¹ s⁻¹ | binding result [2]: no binding (tested: 10 µg/ml) | binding result [3]: no binding (tested: 10 µg/ml)
B1: humanized monoclonal antibody 8E11.v2 (antibody, human IgG1, kappa, V domains shown)
VH: EVQLVQSGAEVKKPGASVKVSCKASGYTFSAYWIEWVRQAPGQGLEWIGEILPGSDSTDYNEKFKVRATFTSDTSTSTVYLELSSLRSEDTAVYYCARGGHYGSLDYWGQGTLVTVSS
VL: DIVMTQSPDSLAVSLGERATINCRASESVDNYGNSFMHWYQQKPGQPPKLLIYLASNLESGVPDRFSGSGSGTDFTLTISSLQAEDVAVYYCQQNYEDPFTFGQGTKVEIKR
notes: It was assessed as an IgG; also called hu8E11.v2; hu8E11v2

Kd [4]: 1.6 nM | binding result [2]: no binding (tested: 10 µg/ml) | binding result [3]: no binding (tested: 10 µg/ml)
B2: human antibody YW353 (antibody, human IgG1, kappa, V domains shown)
VH: EVQLVESGGGLVQPGGSLRLSCAASGFTFTSYSISWVRQAPGKGLEWVAEIYPPGGYTDYADSVKGRFTISADTSKNTAYLQMNSLRAEDTAVYYCAKARLFFDYWGQGTLVTVSS
VL: DIQMTQSPSSLSASVGDRVTITCRASQDVSTAVAWYQQKPGKAPKLLIYSASFLYSGVPSRFSGSGSGTDFTLTISSLQPEDFATYYCQQSYTTPPTFGQGTKVEIKR
notes: also called huYW353

Kd [4]: 2.4 nM | Kd [1]: 3 nM | koff [1]: 0.00064 s⁻¹ | kon [1]: 210000 M⁻¹ s⁻¹ | binding result [2]: no binding (tested: 10 µg/ml) | binding result [3]: no binding (tested: 10 µg/ml)
B3: chimeric monoclonal antibody 8E11 (antibody, human IgG1, V domains shown)
VH: QVQLQQSGTELMKPGASVKISCKATGYTFSAYWIEWIKQRPGHGLEWIGEILPGSDSTDYNEKFKVKATFSSDTSSNTVYIQLNSLTYEDSAVYYCARGGHYGSLDYWGQGTTLKVSS
VL: NIVLTQSPASLAVSLGQRATISCRASESVDNYGNSFMHWYQQKPGQPPKLLIYLASNLESGVPARFSGSGSRTDFTLTIDPVEADDAATYYCQQNYEDPFTFGSGTKVEIKR
notes: also called ch8E11; chimeric 8E11
